Reference: patent publication US6645733B1, “Fluorescent intensity method for assaying binding between proteins or peptides” (Ingeneus Corporation, priority 1999, dated 2003)
No end group written: not given here. fluorescein = fluorescein label at the amino-terminal end; Flu = fluorescein

B1: Mutant angiotensin II fragment containing the first five amino acid residues of wildtype AII, labeled with fluorescein at its amino-terminus [Flu-AII(1-5)] (peptide)
peptide: Flu-DRVYI
notes: Synthesized by AnaSpec; also called mutant Flu-AII(1-5); mutant Flu-AII

How the values were obtained:
human AT1 receptor = target: T1, human AT1 receptor (Homo sapiens, UniProt P30556); experiment: Flu-AII:AT1 fluorescent intensity quenching binding assay; conditions: 0.005, 0.01, 0.02 and 0.05 units AT1 receptor, 10 nM probe
T1 construct: purchased NEN Life Science Products Inc., Boston, Mass; host or cells: Chinese hamster ovary (CHO) cells, purified membrane preparation
T1 sequence (P30556 1-359): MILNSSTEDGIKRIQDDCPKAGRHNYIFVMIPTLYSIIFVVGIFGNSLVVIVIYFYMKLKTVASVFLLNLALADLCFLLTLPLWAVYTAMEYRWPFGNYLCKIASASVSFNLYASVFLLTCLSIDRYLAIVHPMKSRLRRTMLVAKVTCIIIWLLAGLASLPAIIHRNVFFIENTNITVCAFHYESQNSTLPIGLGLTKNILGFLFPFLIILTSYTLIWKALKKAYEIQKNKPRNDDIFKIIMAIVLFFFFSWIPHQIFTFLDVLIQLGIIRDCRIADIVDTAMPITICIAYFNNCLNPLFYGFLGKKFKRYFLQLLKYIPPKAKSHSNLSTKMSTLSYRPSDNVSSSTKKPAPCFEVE

[1] = target: T2, Cloned human angiotensin II AT1 receptor (purified membrane preparation derived from CHO cells) (human, UniProt P30556 1-359); experiment: fluorescence intensity quenching assay in solution
T2 construct: whole, on cells; Used as a membrane preparation, not intact cells; also called human AT1 receptor
T2 sequence (looked up): T1 sequence (P30556 1-359)

| Molecule | binding to AT1 receptor (fluorescent intensity versus probe alone) (human AT1 receptor) | binding result [1] |
| --- | --- | --- |
| Flu-Asp-Arg-Val-Tyr-Ile (fluorescein-DRVYI) [Flu-AII(1-5)] | did not bind |  |
| B1 |  | no binding |
